Reference: the supplement of paper PMC7877785
± gives the uncertainty stated by the source.

Experiment: self-splicing fitness, log relative to wild type (ln ratio); higher = more splicing; Tetrahymena group I intron in knt gene, E. coli kanamycin selection, DiMSum; sequences stand for … in CUCUCU…GGAGGGAAAAGUUAUCAGGCAUGCACCUGGUAGCUAGUCUUUAAACCAAUAGAUUGCAUCGGUUUAAAAGGCAAGACCGUCAAAUUGCGGGAAAGGGGUCAACAGCCGUUCAGUACCAAGUCUCAGGGGAAACUUUGAGAUGGCCUUGCAAAGGGUAUGGUAAUAAGCUGACGGACAUGGUCCUAACCACGCAGCCAAGUCCUAAGUCAACAGAUCUUCUGUUGAUAUGGAUGCAGUUCACAGACUAAAUGUCGGUCGGGGAAGAUGUAUUCUUCUCAUAAGAUAUAGUCGGACCUCUCCUUAAUGGGAGCUAGCGGAUGAAGUGAUGCAACACUGGAGCCGCUGGGAACUAAUUUGUAUGCGAAAGUAUAUUGAUUAGUUUUGGAGUACUCGUGGUCG
How it was run: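 Fitness was computed with DiMSum as the error-weighted combination of replicate fold changes, kanamycin versus none, each normalised to wild type. The library randomised all eight intron nucleotides of the P1ex region, with the intron placed in the knt kanamycin-resistance gene on pET-22b(+) in E. coli BL21(DE3). Six replicate transformations were grown overnight at 37°C or 30°C on LB agar with or without 25 μg/mL kanamycin, plus 100 μg/mL carbenicillin, 50 μM IPTG and 0.2% rhamnose. Pooled colonies were amplicon-sequenced on an Illumina HiSeq 2500.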

Sequence | self-splicing fitness (ln) (30 °C) | self-splicing fitness (ln) (37 °C)
GUAGAGCAAUAUUACGCUAC | -2.54 ± 0.25 | -2.15 ± 0.34
CCGUAGCAAUAUUACGAUAG | -1.22 ± 0.29 | -0.918 ± 0.18
CCACAGCAAUAUUACGAUAC | -3.48 ± 0.24 | -2.16 ± 0.22
UAGAAGCAAUAUUACGCUGA | – | -1.74 ± 0.2
CUUUAGCAAUAUUACGCGCG | -1.05 ± 0.14 | -0.656 ± 0.17
GCGCAGCAAUAUUACGCCUU | -2.92 ± 0.23 | 0.19 ± 0.14
GGACAGCAAUAUUACGGGGC | -1.63 ± 0.092 | -1.72 ± 0.13
CGUAAGCAAUAUUACGGCCC | – | -1.43 ± 0.3
UAACAGCAAUAUUACGGCUU | -0.716 ± 0.082 | -0.0863 ± 0.1
GGUAAGCAAUAUUACGAAGU | -1.93 ± 0.31 | -1.78 ± 0.25
UAAGAGCAAUAUUACGCUGU | -3.35 ± 0.45 | -2.22 ± 0.34
UAAAAGCAAUAUUACGACCC | -1.73 ± 0.28 | 0.481 ± 0.33
GAUUAGCAAUAUUACGAAGC | -2.4 ± 0.21 | -2.28 ± 0.21
UUCCAGCAAUAUUACGCACC | -2.48 ± 0.3 | -1.55 ± 0.26
UUUCAGCAAUAUUACGCCCU | -0.619 ± 0.22 | -0.611 ± 0.29
AAGCAGCAAUAUUACGGGGC | -3.15 ± 0.23 | -2.54 ± 0.24
GCGCAGCAAUAUUACGGGGC | -3.33 ± 0.18 | -2.75 ± 0.38
AUCUAGCAAUAUUACGCGAU | – | -2.53 ± 0.29
GAUGAGCAAUAUUACGCGUU | -4.44 ± 0.28 | -3.27 ± 0.21
AUAAAGCAAUAUUACGGUGU | -1.25 ± 0.068 | -0.672 ± 0.082
CAUGAGCAAUAUUACGAGGC | -2.4 ± 0.2 | -2.34 ± 0.26
GUUUAGCAAUAUUACGUCCU | -1.12 ± 0.24 | -1.03 ± 0.25
CCGAAGCAAUAUUACGACAA | -3.59 ± 0.4 | -2.52 ± 0.29
CACAAGCAAUAUUACGUUCC | -3.75 ± 0.19 | -2.42 ± 0.23
GCCGAGCAAUAUUACGGAAA | -0.987 ± 0.1 | -0.953 ± 0.1

Sequence | self-splicing fitness (ln) (30 °C) | self-splicing fitness (ln) (37 °C)
UUUCAGCAAUAUUACGGACC | -1.2 ± 0.4 | –
CUCCAGCAAUAUUACGGGCC | -1.01 ± 0.26 | –
CAGUAGCAAUAUUACGUUUU | -3.8 ± 0.24 | -3.01 ± 0.24
AAUGAGCAAUAUUACGAUGG | -1.98 ± 0.13 | -2.1 ± 0.26
UACGAGCAAUAUUACGGGGU | -3.05 ± 0.14 | -2.28 ± 0.14
CGUGAGCAAUAUUACGGUGG | -2.03 ± 0.082 | -1.35 ± 0.1
UGACAGCAAUAUUACGUCAA | -2.37 ± 0.18 | -0.896 ± 0.11
GACGAGCAAUAUUACGUACG | -2.63 ± 0.29 | -2.17 ± 0.33
GAUUAGCAAUAUUACGAAUG | -0.837 ± 0.14 | -0.649 ± 0.16
CUGUAGCAAUAUUACGUACC | – | -0.725 ± 0.38
CUGGAGCAAUAUUACGAAAA | -2.86 ± 0.25 | -1.6 ± 0.22
AACUAGCAAUAUUACGAGGA | -1.71 ± 0.1 | -1.89 ± 0.11
AGUAAGCAAUAUUACGCUCA | -0.405 ± 0.12 | -0.595 ± 0.11
UUCAAGCAAUAUUACGGUAA | -0.679 ± 0.097 | 0.0151 ± 0.1
UUGAAGCAAUAUUACGGAUU | -1.18 ± 0.081 | -0.94 ± 0.12
AGGUAGCAAUAUUACGUAUC | -3.25 ± 0.025 | -2.07 ± 0.038
GAAUAGCAAUAUUACGGAAA | -1.98 ± 0.16 | -1.31 ± 0.14
AAAAAGCAAUAUUACGAGUG | -1.35 ± 0.088 | -1.18 ± 0.09
AUCAAGCAAUAUUACGCUUG | -4.23 ± 0.39 | -2.6 ± 0.22
CGUCAGCAAUAUUACGCCCA | -0.52 ± 0.12 | -0.0594 ± 0.14
UUCAAGCAAUAUUACGACCU | -2.33 ± 0.27 | -0.916 ± 0.18
CCGGAGCAAUAUUACGGGGA | -2.97 ± 0.2 | -2.73 ± 0.3
UUGCAGCAAUAUUACGUGUC | -3.3 ± 0.17 | -3.15 ± 0.24
ACAUAGCAAUAUUACGUCGA | -1.95 ± 0.18 | -1.64 ± 0.15
GCUAAGCAAUAUUACGCUGG | -4.23 ± 0.24 | -2.76 ± 0.26
